This test deals with biotinylated human neonatal Fc receptor (FcRn) (human) (UniProt P55899). The experiment in a line: BLI. For orientation: BLI is a label-free optical method that tracks binding on a fibre tip over time.
“AlbuCORE_1 scaffold (split human serum albumin, split site 339-340) (complex)” gave a Kd of 0.19 µM. “AlbuCORE_2 scaffold (split human serum albumin, split site 300-301) (complex)” returned a Kd of 0.58 µM. Next, “AlbuCORE_3 scaffold (split human serum albumin, split site 364-365) (complex)”: 0.76 µM. The same measure for “AlbuCORE_4 scaffold (split human serum albumin, split site 441-442) (complex)”: 0.98 µM; for “AlbuCORE_6 scaffold (split human serum albumin, deletion of residue 84) (complex)”: 1.6 µM. Next, “AlbuCORE_7 scaffold (split human serum albumin, split site 171-172) (complex)”: 1.65 µM; “AlbuCORE_9 scaffold (split human serum albumin, split site 281-282) (complex)”: 1.25 µM.

What is called Kd is the equilibrium constant for the complex coming apart. Low readings indicate higher affinity, high ones lower affinity.

The values above are taken from publication PMC7531512.
